Our source for the self-cleavage values is the RNAGym collection of RNA variant scans (doi:10.7554/elife.80360).

B1: Hairpin Ribozyme (parent)
chain: GUCCUCUUUCACGUGCGCGUGAAAGAGAGAAGUGAACCAGAGAAACACACGUUGUGGUAUAUUACCUGGUA

Variants of B1 are the subject of this series. Nature of the series: self-cleavage, relative activity (ratio to wild type); higher = more cleavage; co-transcriptional.
Turning to GACCUCUUUCACGUGCGCGUGAGAGAGAGAAGUGAACCAGAGAAACACACGUUGUGGUAUAUUACCUGGUA, the self-cleavage worked out at 0.332. For UUCCUCUUUCACGUGCGCGUGAAAGAGAGAAGUGAACCAGAGAAACACACGUUGUGGUAUAUUACUUGGUA the value was 0.0959; for UUCCGCUUUCACGUGCGCGUGAAAGAGAGAAGUGAACCAGAGAAACACACGUUGUGGUAUAUUACCUGGUA, 0.194; for UUCCUCUUUCACGUGCGCGUGAAACAGAGAAGUGAACCAGAGAAACACACGUUGUGGUAUAUUACCUGGUA, 0.0754. As for UUCCUCUUUCACGUGCGCGUGAAAAAGAGAAGUGAACCAGAGAAACACACGUUGUGGUAUAUUACCUGGUA, the figure is 0.133. UUCCUCUUUCACGUGCGCGUGAAAUAGAGAAGUGAACCAGAGAAACACACGUUGUGGUAUAUUACCUGGUA: the self-cleavage was 0.21. Consider UUCCUCUUUCACGUGCGCGUGAAAGAGAGAAGUGAACCAGAGAAACACACUUUGUGGUAUAUUACCUGGUA, for which the self-cleavage was 0.133. GACCUCUUUCACGUGCGCGUGAACGAGAGAAGUGAACCAGAGAAACACACGUUGUGGUAUAUUACCUGGUA: the self-cleavage was determined as 0.134. As for UUCCUCUUUCACGUGCGCGUGAAAGAGAGAAGUGAACCAGAGAUACACACGUUGUGGUAUAUUACCUGGUA, the self-cleavage worked out at 0.128.

On to GACCUCUUUCUCGUGCGCGUGAAAGAGAGAAGUGAACCAGAGAAACACACGUUGUGGUAUAUUACCUGGUA, for which the self-cleavage was 0.269. As for UUCCUCUUUCACGUGCGCGUGAAAGAGAGAAGUGAACCAGAGAACCACACGUUGUGGUAUAUUACCUGGUA, the figure is 0.126. On to UUCCUCUUUCACGUGCGCGUGAAAGAGAGAAGUGAACCAGAGAAGCACACGUUGUGGUAUAUUACCUGGUA, for which the self-cleavage is 0.0992. For UUCCUCUUUCACGUGCGCGUGAAAGAGAGAAGUGAACCAGAGAAUCACACGUUGUGGUAUAUUACCUGGUA the value was 0.228. For UUCCUCUUUCACGUGCGAGUGAAAGAGAGAAGUGAACCAGAGAAACACACGUUGUGGUAUAUUACCUGGUA the value was 0.157; for UUCCUCUUUCACGUGCGCGUGAAAGAGAGAAGUGAACCAGAGAAACACACGUUGUGGUAUAUAACCUGGUA, 0.215; for UUCCUCUUUCACGUGCGCGUGAAAGAGAGAAGUGAACCAGAGAAACACACGUUGUGGUAUAUCACCUGGUA, 0.181.

UUCCUCUUUCACGUGCGCGUGAAAGAGAGAAUUGAACCAGAGAAACACACGUUGUGGUAUAUUACCUGGUA: the self-cleavage stood at 0.0476. For UUCCUCUUUCACGUGCGCGUGAAAGAGAGAAGUGAACCAGAGAAACACACGGUGUGGUAUAUUACCUGGUA the value was 0.143; for UUCCUCUUUCACGUGCGCGUGAAAGAGAGAAGUGACCCAGAGAAACACACGUUGUGGUAUAUUACCUGGUA, 0.143. Turning to UUUCUCUUUCACGUGCGCGUGAAAGAGAGAAGUGAACCAGAGAAACACACGUUGUGGUAUAUUACCUGGUA, the self-cleavage turned out to be 0.255.

As to UUCCUCUUUCACGUGCGCGUGAAAGAGAGAAGCGAACCAGAGAAACACACGUUGUGGUAUAUUACCUGGUA, the self-cleavage was found to be 0.173.

In the case of UUCCUCUUACACGUGCGCGUGAAAGAGAGAAGUGAACCAGAGAAACACACGUUGUGGUAUAUUACCUGGUA, the self-cleavage is 0.115.

Turning to UUCCUCUUUCACGUGCGCGUGAAAGAGAGAAGUGAACCAGAGAAACACACGUUGUGGUAUAUUACCUGGAA, the self-cleavage was 0.111. On to UUCCUCUUUCACGUGCGCGUGAAAGAGAGAAGUGAACCAGAGAAACACACGUUGUGGUAUAUUACCUGGGA, for which the self-cleavage stood at 0.0694. As for UUCCUCUUUCACGUGCGCGUGAAAGAGAGAAGUGAACAAGAGAAACACACGUUGUGGUAUAUUACCUGGUA, the figure is 0.154. As for GACCUCUUUCACGUGCGCGUGAAAGAGCGAAGUGAACCAGAGAAACACACGUUGUGGUAUAUUACCUGGUA, the figure is 0.258. For GACCUCUUUCACGUGCGCGUGAAAGAGUGAAGUGAACCAGAGAAACACACGUUGUGGUAUAUUACCUGGUA the value was 0.136; for GACCUCUUUCACGUGCGCGUGAAAGAGAGCAGUGAACCAGAGAAACACACGUUGUGGUAUAUUACCUGGUA, 0.162. For UUCCUCUUUCACGUGCGCGUGAAAGAGAGAAGUGAACCAGAGAAACACAGGUUGUGGUAUAUUACCUGGUA, the self-cleavage amounted to 0.124. Regarding UUCCUCUUUCACGUGCGCGUGAAAGAGAGCAGUGAACCAGAGAAACACACGUUGUGGUAUAUUACCUGGUA, the self-cleavage was determined as 0.178.

In the case of UUCCUCUUUCACGUGCGCGUGAAAGAGAGUAGUGAACCAGAGAAACACACGUUGUGGUAUAUUACCUGGUA, the self-cleavage worked out at 0.162. As for UUCCUCUUUCACGUGCGCGUGAAAGAGAGAAGUGAACCAGAGAAACACACGUUUUGGUAUAUUACCUGGUA, the figure is 0.141. On to UUCCUCUUUCACGUGCGCGUGAAAGAGAGAAGUGAACCAGAGAAACACACGUUAUGGUAUAUUACCUGGUA, for which the self-cleavage came to 0.0766. For UUCCUCUUUCACGUGCGCGUGAAAGAGCGAAGUGAACCAGAGAAACACACGUUGUGGUAUAUUACCUGGUA the value was 0.0863; for UUCCUCUUUCACGUGCGCGUGAAAGAGAGAAGUGAACCAGAGAAACACACGUUGUAGUAUAUUACCUGGUA, 0.127. For UUCCUCUUUCACGUGCGCGUGAAAGAGAGAAGUGAACCAGAGAAACACACGUUGUGGUAUAUUACCUGGUU the value was 0.167; for UUCCUCUUUCACGUGCCCGUGAAAGAGAGAAGUGAACCAGAGAAACACACGUUGUGGUAUAUUACCUGGUA, 0.112. As for UUCCUCUUUCACGUGCACGUGAAAGAGAGAAGUGAACCAGAGAAACACACGUUGUGGUAUAUUACCUGGUA, the figure is 0.2; as for UUCCUCUUUCACGUGCGCGUGAAAGAGAGAAGUGAACCAGAGAAACACACGUUGUGGGAUAUUACCUGGUA, 0.253; as for UUCCUCUUUCACGUGCGCGUGAAAGAGAGAAGUGAACCAGAGAAACACACGUCGUGGUAUAUUACCUGGUA, 0.179. UUCCUCUUUCACGUGCGCCUGAAAGAGAGAAGUGAACCAGAGAAACACACGUUGUGGUAUAUUACCUGGUA: the self-cleavage worked out at 0.105. For UUCCUCUUUCACGUGCGCUUGAAAGAGAGAAGUGAACCAGAGAAACACACGUUGUGGUAUAUUACCUGGUA the value was 0.134; for GACCUCUUUCACGUGCGCGUGAAAGAGAGAAGUGGACCAGAGAAACACACGUUGUGGUAUAUUACCUGGUA, 0.225; for GACCUCUUUCACGUGCGCGUGAAAGAGAGAAGUGCACCAGAGAAACACACGUUGUGGUAUAUUACCUGGUA, 0.374. For UUCCUCUUUCACGUGCGCGUGAAAGAGAGAAGUGAACCUGAGAAACACACGUUGUGGUAUAUUACCUGGUA the value was 0.0669; for UUCCUCUUUCACGUGCGCGUGAAAGAGAGAAGUGAACCCGAGAAACACACGUUGUGGUAUAUUACCUGGUA, 0.118; for UUCCUCUUUCACAUGCGCGUGAAAGAGAGAAGUGAACCAGAGAAACACACGUUGUGGUAUAUUACCUGGUA, 0.0563.

In the case of UUCCUCUUUAACGUGCGCGUGAAAGAGAGAAGUGAACCAGAGAAACACACGUUGUGGUAUAUUACCUGGUA, the self-cleavage stood at 0.151. As for UUCCUCUUUUACGUGCGCGUGAAAGAGAGAAGUGAACCAGAGAAACACACGUUGUGGUAUAUUACCUGGUA, the figure is 0.132; as for UUCCUCUUUCACGUGCGCGUGAAAGAGAGAAGUGAACCAGAGAAACACACGUUGUGGUAUAUUCCCUGGUA, 0.166; as for UUCCUCUUUCACGUGCGCGUGAAAGAGAGAAGUGAACCAGAGAAACACACGUUGUGGUAUAUUUCCUGGUA, 0.119. On to UUCUUCUUUCACGUGCGCGUGAAAGAGAGAAGUGAACCAGAGAAACACACGUUGUGGUAUAUUACCUGGUA, for which the self-cleavage was determined as 0.206.

Turning to UCCCUCUUUCACGUGCGCGUGAAAGAGAGAAGUGAACCAGAGAAACACACGUUGUGGUAUAUUACCUGGUA, the self-cleavage was 0.232. For UUCCUCUUUCACGUGCGCGUGAAAGAGAGAAGUGAACCAGAGAAACACCCGUUGUGGUAUAUUACCUGGUA the value was 0.202; for UUCCUCUUUCACGUGCGCGUGAAAGAGAGAAGUGAACCAGAGAAACACUCGUUGUGGUAUAUUACCUGGUA, 0.0947; for UUCCUCUUUCAAGUGCGCGUGAAAGAGAGAAGUGAACCAGAGAAACACACGUUGUGGUAUAUUACCUGGUA, 0.0913. Regarding UUCCUCUUUCACGUGCGCGUGAAAGAGAGAAGUGAACCAGAGAAACCCACGUUGUGGUAUAUUACCUGGUA, the self-cleavage is 0.107. For the variant UUCCUCUUUCACGUGCGCGUGAAAGAGAGAAGUGAACCAGAGAAACGCACGUUGUGGUAUAUUACCUGGUA, the self-cleavage was determined as 0.046. Turning to UUCCUCUUUCACGUGCGCGUCAAAGAGAGAAGUGAACCAGAGAAACACACGUUGUGGUAUAUUACCUGGUA, the self-cleavage worked out at 0.112.

For the variant UUCCUCUUUCACGUGCGCGUUAAAGAGAGAAGUGAACCAGAGAAACACACGUUGUGGUAUAUUACCUGGUA, the self-cleavage stood at 0.109.

As for UUCCUCUUUCACGUGCGCGUGAAAGAGAGAAGUGAACCAGAGAAACAGACGUUGUGGUAUAUUACCUGGUA, the self-cleavage stood at 0.0484. As for GACCUCUUUCACGUGCGCGUGAAAGCGAGAAGUGAACCAGAGAAACACACGUUGUGGUAUAUUACCUGGUA, the figure is 0.311; as for UUCCUCUUUCACGUGCGCGUGAAAGAGAGAAGUGAACCAGAGAAACACACGUUGUGCUAUAUUACCUGGUA, 0.145. As for UUCCUCUUUCACGUGCGCGUGAAAGAGAGAAGUGAACCAGAGAAACACACGUUGUGUUAUAUUACCUGGUA, the figure is 0.125; as for UUCCUCUUUCACGUGCGCGUGAAAGAGAGAAGUGAACCAGAUAAACACACGUUGUGGUAUAUUACCUGGUA, 0.162; as for UUCCUCUUUCACGUGCGCGUGAAAGAGAGAAGUGAACCAGAAAAACACACGUUGUGGUAUAUUACCUGGUA, 0.121. As for UUCCUCUUUCACGUGCGCGUGAAAGAGAGAAGUGAACCAGACAAACACACGUUGUGGUAUAUUACCUGGUA, the figure is 0.0939. Turning to GACCUCUUUCACGUGCGCGUGUAAGAGAGAAGUGAACCAGAGAAACACACGUUGUGGUAUAUUACCUGGUA, the self-cleavage stood at 0.208. As for UUCCUCUUUCACGUGCGCGUGAAAGAGAGACGUGAACCAGAGAAACACACGUUGUGGUAUAUUACCUGGUA, the figure is 0.0695; as for UUCCUCUUUCACGUGCGCGUGAAAGAGAGAGGUGAACCAGAGAAACACACGUUGUGGUAUAUUACCUGGUA, 0.0331. As for UUCCUCUUUCACGUGCGCGUGAAAGAGAGAAGUGAACCAGAGUAACACACGUUGUGGUAUAUUACCUGGUA, the figure is 0.142; as for UUCCUCUUUCACGUGCGCGUGAAAGAGAGAAGUGAACCAGAGGAACACACGUUGUGGUAUAUUACCUGGUA, 0.0972; as for UUCCUCUUUCACGUGCGCGUGAAAGAGAGAAGUGAACCAGAGCAACACACGUUGUGGUAUAUUACCUGGUA, 0.169.

As for UUCCUCUUUCACGUGCGCGGGAAAGAGAGAAGUGAACCAGAGAAACACACGUUGUGGUAUAUUACCUGGUA, the self-cleavage worked out at 0.0885. For the variant UUCCUCUUUCACGUGCGCGCGAAAGAGAGAAGUGAACCAGAGAAACACACGUUGUGGUAUAUUACCUGGUA, the self-cleavage came to 0.203. Regarding UUCCUCUUUCACGUGCGCGUGAAAGACAGAAGUGAACCAGAGAAACACACGUUGUGGUAUAUUACCUGGUA, the self-cleavage was determined as 0.113.
